Source: publication PMC2702170, “DNA Structure Modulates the Oligomerization Properties of the AAV Initiator Protein Rep68” (PLoS Pathogens, 2009)

What was measured:
His-Rep68 WT = His-Rep68 WT (Adeno-associated virus 2 (AAV2), UniProt P03132 1-536); experiment: size exclusion chromatography; somewhat less efficient than untagged; Anisotropy: 20 mM HEPES pH 7.5, 50 mM NaCl, 5 nM DNA, 20 C, 15 min. SEC: 25 mM Tris-HCl pH 8.0 (4 C), 200 mM NaCl, 5% glycerol, 1 mM TCEP, 16.6 uM protein, 30 min on ice; conditions: protein: recombinant; tags: N-terminal His6-PreScission site; chain copies: 16
Rep68 [1] = target: T1, Rep68 (Adeno-associated virus 2 (AAV2), UniProt P03132 1-536); experiment: size exclusion chromatography; sedimentation velocity; SAXS; cryo-EM; no nucleotide; apparent ~2.3 MDa; Anisotropy: 20 mM HEPES pH 7.5, 50 mM NaCl, 5 nM DNA, 20 C, 15 min. SEC: 25 mM Tris-HCl pH 8.0 (4 C), 200 mM NaCl, 5% glycerol, 1 mM TCEP, 16.6 uM protein, 30 min on ice; conditions: protein: recombinant; tags: untagged (His6-PreScission tag removed); chain copies: 16
OID (OID-N208) [2] = target: T2, OID (OID-N208) (Adeno-associated virus 2 (AAV2), UniProt P03132 1-208); experiment: size exclusion chromatography; 2.8 or 16.6 uM ssDNA, 200 mM NaCl; ssDNA elutes free; Anisotropy: 20 mM HEPES pH 7.5, 50 mM NaCl, 5 nM DNA, 20 C, 15 min. SEC: 25 mM Tris-HCl pH 8.0 (4 C), 200 mM NaCl, 5% glycerol, 1 mM TCEP, 16.6 uM protein, 30 min on ice; conditions: protein: recombinant; chain copies: 2
Rep40 [3] = target: T3, Rep40 (Adeno-associated virus 2 (AAV2), UniProt Q89269 1-312); experiment: as above; conditions: protein: recombinant
T3 sequence: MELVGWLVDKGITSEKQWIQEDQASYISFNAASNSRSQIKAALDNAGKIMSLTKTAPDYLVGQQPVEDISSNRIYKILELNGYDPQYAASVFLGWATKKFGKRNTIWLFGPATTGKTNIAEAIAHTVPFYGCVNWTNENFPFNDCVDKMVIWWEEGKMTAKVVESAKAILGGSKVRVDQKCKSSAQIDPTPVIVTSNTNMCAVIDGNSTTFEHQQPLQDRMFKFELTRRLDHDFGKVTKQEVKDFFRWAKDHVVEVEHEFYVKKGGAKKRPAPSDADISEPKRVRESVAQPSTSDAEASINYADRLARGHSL

[4] = target: the molecule itself; experiment: cryo-EM structure; Rep68-heteroduplex complex purified by size-exclusion chromatography; 2D classification of a limited number of end views
[5] = target: the molecule itself; experiment: AUC; with RBS dsDNA; sedimentation velocity (Rep68 1 mg/ml, 2.8 µM RBS dsDNA, buffer A, 45,000 rpm, 20°C) and sedimentation equilibrium (complex purified by gel filtration, OD260 0.25 or 0.75; 4,000, 5,000 and 7,000 rpm, 20°C)
[6] = target: the molecule itself; experiment: cryo-EM structure; Rep68-ssDNA complex purified on Superose 6, about 0.4 mg/ml; 0.05% n-octyl β-D-glucopyranoside for side views; reference-free 2D alignment and classification only (no 3D map)
[7] = target: the molecule itself; experiment: SEC; Superose 6 10/300 GL, buffer A (25 mM Tris-HCl pH 8.0, 200 mM NaCl, 5% glycerol, 1 mM TCEP); Rep protein 16.6 µM incubated with 2.8 µM ssDNA (polydT25) 30 min on ice; also with 1 mM ATP, ATP/CaCl2 or ATP/MgCl2 added (same complex)
OID (OID-N208) [8] = target: T2, OID (OID-N208); experiment: fluorescence anisotropy; Anisotropy: 20 mM HEPES pH 7.5, 50 mM NaCl, 5 nM DNA, 20 C, 15 min. SEC: 25 mM Tris-HCl pH 8.0 (4 C), 200 mM NaCl, 5% glycerol, 1 mM TCEP, 16.6 uM protein, 30 min on ice; conditions: protein: recombinant; chain copies: 2; label: 5' 6-carboxyfluorescein
Rep40 [9] = target: T3, Rep40; experiment: as above; conditions: protein: recombinant; label: 5' 6-carboxyfluorescein
Rep68 [10] = target: T1, Rep68; experiment: as above; conditions: protein: recombinant; tags: untagged (His6-PreScission tag removed); chain copies: 16; label: 5' 6-carboxyfluorescein
OID (OID-N208) [11] = target: T2, OID (OID-N208); experiment: size exclusion chromatography; 2.8 or 16.6 uM RBS dsDNA, 200 mM NaCl; Anisotropy: 20 mM HEPES pH 7.5, 50 mM NaCl, 5 nM DNA, 20 C, 15 min. SEC: 25 mM Tris-HCl pH 8.0 (4 C), 200 mM NaCl, 5% glycerol, 1 mM TCEP, 16.6 uM protein, 30 min on ice; conditions: protein: recombinant; chain copies: 2; blunt
Rep68 [12] = target: T1, Rep68; experiment: size exclusion chromatography; sedimentation velocity; SAXS; apparent ~578 kDa; five Rep68 subunits; Anisotropy: 20 mM HEPES pH 7.5, 50 mM NaCl, 5 nM DNA, 20 C, 15 min. SEC: 25 mM Tris-HCl pH 8.0 (4 C), 200 mM NaCl, 5% glycerol, 1 mM TCEP, 16.6 uM protein, 30 min on ice; conditions: protein: recombinant; tags: untagged (His6-PreScission tag removed); chain copies: 5; blunt

TTTTTTTTTTTTTTTTTTTTTTTTT (ssDNA) [poly-dT25 ssDNA]: binds (His-Rep68 WT); binds (Rep68 [1]); no binding (OID (OID-N208) [2]). TTTTTTTTTTTTTTTTTTTTTTTTT (ssDNA) [poly-dT25 ssDNA]: no binding (Rep40 [3]).

B1: Rep68 (adeno-associated virus 2), non-tagged (natural protein)
chain: MPGFYEIVIKVPSDLDGHLPGISDSFVNWVAEKEWELPPDSDMDLNLIEQAPLTVAEKLQRDFLTEWRRVSKAPEALFFVQFEKGESYFHMHVLVETTGVKSMVLGRFLSQIREKLIQRIYRGIEPTLPNWFAVTKTRNGAGGGNKVVDECYIPNYLLPKTQPELQWAWTNMEQYLSACLNLTERKRLVAQHLTHVSQTQEQNKENQNPNSDAPVIRSKTSARYMELVGWLVDKGITSEKQWIQEDQASYISFNAASNSRSQIKAALDNAGKIMSLTKTAPDYLVGQQPVEDISSNRIYKILELNGYDPQYAASVFLGWATKKFGKRNTIWLFGPATTGKTNIAEAIAHTVPFYGCVNWTNENFPFNDCVDKMVIWWEEGKMTAKVVESAKAILGGSKVRVDQKCKSSAQIDPTPVIVTSNTNMCAVIDGNSTTFEHQQPLQDRMFKFELTRRLDHDFGKVTKQEVKDFFRWAKDHVVEVEHEFYVKKGGAKKRPAPSDADISEPKRVRESVAQPSTSDAEASINYADRLARGHSL
notes: Rep68 protein of adeno-associated virus 2 (AAV2), GenBank AAC03774; Expressed as His6-PreScission site-Rep68; the His-PP tag was removed with PreScission protease; also called untagged Rep68; non-tagged Rep68; source: E. coli BL21(DE3)pLysS, purified (Ni column, PreScission cleavage, second Ni column, Superdex 200 gel filtration); not shown: His6, N-terminal, cleaved
B1 was tested, and the “stoichiometry N” value [4] was 8, the “stoichiometry N” value [5] was 5 and the “stoichiometry N” value [6] was 16.

B2: His-Rep68 K406A (natural protein)
chain: MPGFYEIVIKVPSDLDGHLPGISDSFVNWVAEKEWELPPDSDMDLNLIEQAPLTVAEKLQRDFLTEWRRVSKAPEALFFVQFEKGESYFHMHVLVETTGVKSMVLGRFLSQIREKLIQRIYRGIEPTLPNWFAVTKTRNGAGGGNKVVDECYIPNYLLPKTQPELQWAWTNMEQYLSACLNLTERKRLVAQHLTHVSQTQEQNKENQNPNSDAPVIRSKTSARYMELVGWLVDKGITSEKQWIQEDQASYISFNAASNSRSQIKAALDNAGKIMSLTKTAPDYLVGQQPVEDISSNRIYKILELNGYDPQYAASVFLGWATKKFGKRNTIWLFGPATTGKTNIAEAIAHTVPFYGCVNWTNENFPFNDCVDKMVIWWEEGKMTAKVVESAKAILGGSKVRVDQKCASSAQIDPTPVIVTSNTNMCAVIDGNSTTFEHQQPLQDRMFKFELTRRLDHDFGKVTKQEVKDFFRWAKDHVVEVEHEFYVKKGGAKKRPAPSDADISEPKRVRESVAQPSTSDAEASINYADRLARGHSL
notes: Rep68 protein of adeno-associated virus 2 (AAV2), GenBank AAC03774, with K406A; source: E. coli BL21(DE3)pLysS, purified (Ni column, Superdex 200 gel filtration); not shown: His6, N-terminal, kept
B2: binds [7].

B3: His-Rep68 K404A (natural protein)
chain: MPGFYEIVIKVPSDLDGHLPGISDSFVNWVAEKEWELPPDSDMDLNLIEQAPLTVAEKLQRDFLTEWRRVSKAPEALFFVQFEKGESYFHMHVLVETTGVKSMVLGRFLSQIREKLIQRIYRGIEPTLPNWFAVTKTRNGAGGGNKVVDECYIPNYLLPKTQPELQWAWTNMEQYLSACLNLTERKRLVAQHLTHVSQTQEQNKENQNPNSDAPVIRSKTSARYMELVGWLVDKGITSEKQWIQEDQASYISFNAASNSRSQIKAALDNAGKIMSLTKTAPDYLVGQQPVEDISSNRIYKILELNGYDPQYAASVFLGWATKKFGKRNTIWLFGPATTGKTNIAEAIAHTVPFYGCVNWTNENFPFNDCVDKMVIWWEEGKMTAKVVESAKAILGGSKVRVDQACKSSAQIDPTPVIVTSNTNMCAVIDGNSTTFEHQQPLQDRMFKFELTRRLDHDFGKVTKQEVKDFFRWAKDHVVEVEHEFYVKKGGAKKRPAPSDADISEPKRVRESVAQPSTSDAEASINYADRLARGHSL
notes: Rep68 protein of adeno-associated virus 2 (AAV2), GenBank AAC03774, with K404A; source: E. coli BL21(DE3)pLysS, purified (Ni column, Superdex 200 gel filtration); not shown: His6, N-terminal, kept
B3: binds [7].

Binder TTTTTTTTTTTTTTTTTTTTTTTTTTTTTTTTTTTTTT (ssDNA) [poly-dT38 5'-FAM] has a Kd (OID (OID-N208) [8]) of roughly 130 nM, a Kd (Rep40 [9]) of roughly 3500 nM and a Kd (Rep68 [10]) of 23 nM.

B4: RBS dsDNA (JM-2/JM-20) (dsDNA)
DNA 1: GCCTCAGTGAGCGAGCGAGCGCGCAGAG
DNA 2: CTCTGCGCGCTCGCTCGCTCACTGAGGC
B4: binds (OID (OID-N208) [11]); binds (Rep68 [12]).
